Laboratory results published in US20250090699A1, “FAP TARGETING CYCLIC PEPTIDES AND CONJUGATES THEREOF” (Novartis AG, priority 2023, published 2025).
Starred links: 1 amine or outer side, 2 acyl side, 3 side chain; linkers in the order of their positions; H or OH if unused. Non-standard residues stand in square brackets, D forms with d. Residues, ends and D or L forms follow the SMILES beside them. *: point of attachment. F(4amPEG2NHDOTA-Ga) = gallium complex of (S)-2,2',2''-(10-(1-(4-(2-amino-2-carboxyethyl)phenyl)-3,12-dioxo-5,8-dioxa-2,11-diazatridecan-13-yl)-1,4,7,10-tetraazacyclododecane-1,4,7-triyl)triacetic acid (Phe with 4-aminomethyl-PEG2-DOTA-Ga), O=C([O-])CN1CCN(CC(=O)[O-])CCN(CC(=O)NCCOCCOCC(=O)NCc2ccc(C[C@H](N[*:1])C(=O)[*:2])cc2)CCN(CC(=O)[O-])CC1.[Ga+3]; F(4OEtNHDOTA-Ga) = gallium complex of (S)-2,2',2''-(10-(2-((2-(4-(2-amino-2-carboxyethyl)phenoxy)ethyl)amino)-2-oxoethyl)-1,4,7,10-tetraazacyclododecane-1,4,7-triyl)triacetic acid (Phe with 4-O-ethylamino-DOTA-Ga), O=C([O-])CN1CCN(CC(=O)[O-])CCN(CC(=O)NCCOc2ccc(C[C@H](N[*:1])C(=O)[*:2])cc2)CCN(CC(=O)[O-])CC1.[Ga+3]; COpipzaa = 4-(carboxymethyl)piperazine-1-carbonyl, O=C(O)CN1CCN(C(=O)*)CC1; F(4amPEG2NHRDOTAGA-Lu) = Phe with 4-aminomethyl-PEG2-NH-DOTAGA, Lu complex; hS(Pr) = O-propyl-L-homoserine, CCCOCC[C@H](N[*:1])C(=O)[*:2]; NMeF = CN[C@@H](Cc1ccccc1)C(=O)O; Ahp(2) = CCCCC[C@H](N)C(=O)O

Key:
mouse FAP [1] = molecular target: T1, mouse FAP (Mus musculus, UniProt P97321); assay: Surface plasmon resonance (SPR) for peptide affinity, mouse FAP; assay type: binding
T1 construct: biotinylated His, Avi tag, mouse FAP (26-761, FAP-M82Q5); His; Avi tag (biotinylated); purchased AcroBiosystems FAP-M82Q5
T1 sequence (P97321 26-761): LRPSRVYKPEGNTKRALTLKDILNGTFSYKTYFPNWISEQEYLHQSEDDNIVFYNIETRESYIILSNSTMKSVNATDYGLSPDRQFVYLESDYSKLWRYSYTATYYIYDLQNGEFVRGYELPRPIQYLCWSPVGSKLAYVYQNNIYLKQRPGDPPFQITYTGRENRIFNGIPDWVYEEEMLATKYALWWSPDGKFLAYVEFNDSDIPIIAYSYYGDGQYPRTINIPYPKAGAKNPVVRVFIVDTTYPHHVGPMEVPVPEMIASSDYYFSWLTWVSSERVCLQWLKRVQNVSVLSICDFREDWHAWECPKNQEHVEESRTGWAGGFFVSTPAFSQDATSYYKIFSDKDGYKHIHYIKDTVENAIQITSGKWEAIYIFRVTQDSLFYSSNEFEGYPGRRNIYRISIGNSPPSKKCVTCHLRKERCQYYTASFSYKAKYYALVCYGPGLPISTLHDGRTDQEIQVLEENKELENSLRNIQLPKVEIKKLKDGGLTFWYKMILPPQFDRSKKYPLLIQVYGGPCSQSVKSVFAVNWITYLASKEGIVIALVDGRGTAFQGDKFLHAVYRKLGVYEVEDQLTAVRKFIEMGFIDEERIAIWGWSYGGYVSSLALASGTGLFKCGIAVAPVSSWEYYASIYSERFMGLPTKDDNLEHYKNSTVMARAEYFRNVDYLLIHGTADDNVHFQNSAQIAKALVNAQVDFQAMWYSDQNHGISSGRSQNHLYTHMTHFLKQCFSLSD
Protocol: Peptide affinities (KD) were determined by SPR using a Biacore™ 8K device (Cytiva) towards the following proteins: biotinylated His, Avi tag, human FAP (26-760, FAP-H82Q6), biotinylated His, Avi tag, mouse FAP (26-761, FAP-M82Q5), His tag, human DPP4 (34-766, DP4-H82E3), all purchased from AcroBiosystems and His tag, mouse DPP4 (29-760, 954-SE) from R&D Systems. The FAP proteins and their homologous were diluted to a concentration of 2 μg/mL into acetate buffer pH 5.5, then immobilized onto a CM5 sensorchip (Cytiva, BR-1005-30) to reach a response around 2000 R U. The running buffer HBS-EP+pH 7.6 (20× from Teknova CAT. No: H8022) contained 10 mM HEPES pH 7.6, 150 mM NaCl, 3 mM EDTA, 0.05% Tween20 and 2% DMSO. Experiments were carried out at 25° C. using a flow rate of 30 μL/min. Compounds were tested in single cycle kinetic mode at 8 different concentrations. Curve fitting was performed using the Biacore™ 8K evaluation software. The sensorgrams were fitted by applying a 1:1 binding model to calculate kinetic rate constants and equilibrium dissociation constants (KD).
For this assay, the setup had the same conditions (flow rate, running buffer, peptide dilution) as described above for the CM5 method. The oligo CAP reagent obtained in the CAPture Kit (Ref. 28920234) was 1/5 diluted into running buffer and used with a contact time of 300 s at a flow rate of 2 μL/min. The human and mouse FAP constructs described above were used (from AcroBiosystems or produced in house). The FAP proteins were diluted to a concentration of 2 μg/mL into acetate pH 5.5, 0.05% Tween20 and used with a contact time of 600 s at a flow rate of 10 μL/min. The peptides were tested with an association time of 280 s followed by a dissociation time of 3000 s at a flow rate of 30 μL/min. The regeneration was done using the regeneration solution (8 M guanidine-HCl, 1 M NaOH) as obtained with a contact time of 270 s at a flow rate of 10 μL/min. […] The compounds marked with an asterisk were tested against human and mouse DDP4.

mouse FAP [2] = molecular target: T1, mouse FAP; assay: Enzymatic FAP competition assay (Z-Gly-Pro-AMC fluorescence), mouse FAP; assay type: biochemical; details: read-out: m. FAP, Enz., IC50
Protocol: (§1) Peptide potencies (IC50) to inhibit the FAP enzymatic activity were determined using a fluorescence-based assay towards the biotinylated His, Avi tag, human FAP (26-760, FAP-H82Q6) and the biotinylated His, Avi tag, mouse FAP (26-761, FAP-M82Q5). Standard assay conditions consisted of 20 μL total volume in white 384-well plates (Greiner, Ref. 784075), in 50 mM phosphate buffer pH 7.5 containing 150 mM NaCl, 0.05% Tween20 and 1% final DMSO. Tested peptides at 14 different concentrations up to 1 μM were added to 0.01 nM human or mouse FAP. The peptides were incubated for 24 hours together with the protein before adding the substrate 50 μM Z-Gly-Pro-AMC (I-1145 from Bachem). Samples were then incubated at 22-24° C. for 4 h before reading the fluorescence at excitation wavelength of 380 nm and emission wavelength of 460 nm using the Tecan Infinite® M1000 PRO. The high control (100% activity) was not containing any peptide, and an internal potent peptide was added at 10 μM concentration for the low control (100% inhibition). IC50 values were calculated by curve fitting using an in-house developed software (Novartis Helios software application) using the method described by Fomenko et al., 2006 (regression algorithms for nonlinear dose-response curve fitting). Following normalization of activity values for the wells to % inhibition (% inhibition=[(high control-sample)/(high control-low control)]x 100). IC50 fitting was carried out from the duplicated points.

human FAP = molecular target: T2, human FAP (Homo sapiens, UniProt Q12884); assay: Enzymatic FAP competition assay (Z-Gly-Pro-AMC fluorescence), human FAP; assay type: biochemical; details: read-out: h. FAP, Enz., IC50
T2 construct: the biotinylated His, Avi tag, human FAP (26-760, FAP-H82Q6); His; Avi tag (biotinylated); purchased AcroBiosystems FAP-H82Q6
T2 sequence (Q12884 26-760): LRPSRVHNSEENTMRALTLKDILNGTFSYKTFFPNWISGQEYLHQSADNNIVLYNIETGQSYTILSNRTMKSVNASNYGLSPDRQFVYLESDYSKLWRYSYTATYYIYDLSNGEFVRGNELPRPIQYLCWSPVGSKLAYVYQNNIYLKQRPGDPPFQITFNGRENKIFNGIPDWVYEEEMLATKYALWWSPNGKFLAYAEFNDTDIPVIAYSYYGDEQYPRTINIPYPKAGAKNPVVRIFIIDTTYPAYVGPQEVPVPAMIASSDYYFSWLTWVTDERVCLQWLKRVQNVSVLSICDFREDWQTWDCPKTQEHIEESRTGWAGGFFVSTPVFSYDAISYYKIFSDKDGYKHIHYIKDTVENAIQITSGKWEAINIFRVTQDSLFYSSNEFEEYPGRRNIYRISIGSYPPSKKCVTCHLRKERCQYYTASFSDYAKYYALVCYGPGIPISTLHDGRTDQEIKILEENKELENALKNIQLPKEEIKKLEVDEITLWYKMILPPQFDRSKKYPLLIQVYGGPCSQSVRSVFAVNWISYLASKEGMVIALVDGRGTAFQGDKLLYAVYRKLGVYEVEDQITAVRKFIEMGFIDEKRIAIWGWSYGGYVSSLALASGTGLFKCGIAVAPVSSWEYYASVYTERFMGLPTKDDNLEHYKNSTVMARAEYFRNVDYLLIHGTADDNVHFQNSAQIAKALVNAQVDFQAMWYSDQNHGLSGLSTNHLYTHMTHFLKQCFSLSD
Protocol: as §1

Row | Molecule | Kd (mouse FAP [1]) [nM] | IC50 (mouse FAP [2]) [nM] | IC50 (human FAP) [nM]
1 | Gly-Gly-NMePhe-F(4amPEG2NHDOTA-Ga)-Ahp-Trp-Gly-Tyr-Asp-D-Pro (cyclo(GG[NMeF][F(4amPEG2NHDOTA-Ga)][Ahp(2)]WGYD[dP]); also: Ga complex) [Example C49] | < 0.012 | 0.016 | 0.005
2 | CCCCC[C@@H]1NC(=O)[C@H](Cc2ccc(O)cc2)NC(=O)[C@H](Cc2ccccc2)N(C)C(=O)[C@@H](CO)NC(=O)CNC(=O)[C@H]2CCCN2C(=O)[C@H](CC(=O)O)NC(=O)[C@H](Cc2ccc(O)cc2)NC(=O)CNC(=O)[C@H](Cc2c[nH]c3ccccc23)NC1=O [Example A67, Gly-D-Ser-NMePhe-Tyr-Ahp-Trp-Gly-Tyr-Asp-D-Pro] (cyclo([Ahp(2)]WGYD[dP]G[dS][NMeF]Y)) | 208 | 252 | 76
3 | Gly-Gly-NMePhe-F(4OEtNHDOTA-Ga)-Ahp-Trp-Gly-Tyr-Asp-D-Pro (cyclo(GG[NMeF][F(4OEtNHDOTA-Ga)][Ahp(2)]WGYD[dP]); also: Ga complex of DOTA) [Example C51] | 0.026 | 0.058 | 0.03
4 | Gly-Gly-NMePhe-F(4amPEG2NHRDOTAGA-Lu)-hS(Pr)-Trp-Gly-K(COpipzaa)-Asp-D-Pro (cyclo(GG[NMeF][F(4amPEG2NHRDOTAGA-Lu)][hS(Pr)]WGK(COpipzaa)D[dP]); also: Lu complex) [Example C33] | < 0.02 | 0.026 | 0.012
5 | CCCCC[C@@H]1NC(=O)[C@H](Cc2ccc(O)cc2)NC(=O)[C@H](Cc2ccccc2)N(C)C(=O)CNC(=O)CNC(=O)[C@H]2CCCN2C(=O)[C@H](CCCCNC(C)=O)NC(=O)[C@H](Cc2ccc(O)cc2)NC(=O)CNC(=O)[C@H](Cc2c[nH]c3ccccc23)NC1=O [Example A55, Gly-Gly-NMePhe-Tyr-Ahp-Trp-Gly-Tyr-K(Ac)-D-Pro] (cyclo([Ahp(2)]WGYK(Ac)[dP]GG[NMeF]Y)) | 135 | 84 | 24
